Source: patent US20160215067A1 (CASE WESTERN RESERVE UNIVERSITY, published 2016)
Substitutions are numbered along the chain they refer to.

Key:
[1] = target: anti-CEP humanized antibody (anti-CEP huAb), full length; test: competitive ELISA, CEP-BSA coated, inhibitor preincubated with anti-CEP huAb
[2] = target: anti-CEP humanized antibody (anti-CEP huAb), full length; test: competitive ELISA, CEP-BSA coated
[3] = target: T1, CEP-modified human serum albumin (CEP-HSA) (human, UniProt P02768 25-609, 2-(omega-carboxyethyl)pyrrole (CEP) derivatives of primary amino groups; sites and number not stated); test: BIAcore SPR, single-cycle kinetics; CEP-HSA immobilised as ligand, antibody as analyte [panel A, table under the sensorgram]
T1 construct: The antibodies recognise the CEP hapten on the carrier protein

[4] = target: T1, CEP-modified human serum albumin …; test: BIAcore 3000, CEP-HSA immobilized on CM5 chip, single-cycle kinetics, bivalent fit
Experimental: (§1) The binding affinity of each antibody was measured using BIAcore technology.

[5] = target: T1, CEP-modified human serum albumin …; test: BIAcore SPR, single-cycle kinetics; CEP-HSA immobilised as ligand, antibody as analyte [panel B, table under the sensorgram]
Experimental: as §1

[6] = target: T1, CEP-modified human serum albumin …; test: BIAcore, CEP-HSA on chip
Experimental: as §1

[7] = target: T1, CEP-modified human serum albumin …; test: BIAcore single-cycle kinetic analysis
[8] = target: T1, CEP-modified human serum albumin …; test: BIAcore SPR, single-cycle kinetics; CEP-HSA immobilised as ligand, antibody as analyte [table under the sensorgram]

Molecule: CEP-modified human serum albumin (CEP-HSA) (from UniProt P02768 25-609)
- IC50 [1]: 0.0056 µM

Molecule: CHP-BSA (from UniProt P02769 25-607)
- IC50 [1]: 4690 µM
- fold lower cross-reactivity than with anti-CEP mumAb [2]: < 10 fold

Molecule: CPP-HSA (from UniProt P02768 25-609)
- IC50 [1]: 10.5 µM

B1: anti-CEP murine monoclonal antibody (anti-CEP mumAb), hybridoma clone 2D3.3G9-1 (antibody, mouse IgG2a, V domains shown)
VH: QIQLIQSGPELKKPGETVKISCKPSGYAFTKYGMDWVKQAPGEGLKWMGRINTYTGEPTYADDFKGRFAFSLEASASTAYLQINNLKNEDTATYFCARRRDGYPFAYWGQGTLVTVSS
VL: DIVMTQSHKFMSTSVRDRVSITCKASQDVSTAVAWYQQKPGQSPKILIYSASYRFPGVPDRFTGSGSGTDFTFTISSVQAEDLAVYYCHQHYFIPYTFGGGTKLEIK
notes: also called murine anti-CEP mAb; mouse counterpart
- koff [3]: 0.00377 s⁻¹
- kon [3]: 2.36e+07 M⁻¹ s⁻¹
- Kd [4]: 0.00016 µM

B2: anti-CEP humanized antibody (anti-CEP huAb), full length (antibody, human IgG1, V domains shown)
VH: QVQLVQSGAEVKKPGASVKVSCKASGYAFTKYGMDWVRQAPGQGLEWMGRINTYTGEPTYADDFKGRVTITADTSTSTAYMELSSLRSEDTAVYYCARRRDGYPFAYWGQGTLVTVSS
VL: DIVMTQSPDSLAVSLGERATINCKASQDVSTAVAWYQQKPGQPPKLLIYSASYRFPGVPDRFSGSGSGTDFTLTISSLQAEDVAVYYCHQHYFIPYTFGGGTKLEIK
notes: Human IgG1 heavy constant region (vector pFUSE-CHIg-hG1) and human kappa constant region (pFUSE2-CLIg-hk); expressed in CHO-S cells, clone A1; also called original anti-CEP huAb; anti-CEP humAb
- koff [5]: 0.00025 s⁻¹
- kon [5]: 159000 M⁻¹ s⁻¹
- Kd [4]: 0.00158 µM
- fold weaker affinity than anti-CEP mumAb [6]: ~10 fold

B3: Mutant 2F1, full length anti-CEP huAb mutant (antibody, V domains shown)
VH: B2 VH with F29L, D101G
VL: B2 VL
- Kd [7]: 0.00074 µM
- fold stronger affinity than original anti-CEP huAb [7]: ~2 fold
- koff [8]: 0.000228 s⁻¹
- kon [8]: 308000 M⁻¹ s⁻¹
